According to patent US20130288266A1 (ROCHE DIAGNOSTICS OPERATIONS, published 2013):
“And” between values parts separate entries of the source, which are not always exact repeats. Equal entries are not always repeated.

Legend:
[1] = biological target: T1, IGF-1R in untreated IGF-1R overexpressing 3T3 cells (UniProt P08069 31-1367, limits assumed); test: IHC (Ventana BenchMark XT), ssFab' on 8xC18 linker, FFPE 3T3 cells
T1 construct: whole, on cells; also called IGF-1R (unstimulated)
Protocol: (§1) In order to test the specificity of the anti-pIGF-1R dual binder molecule an elaborate test system based on formalin-fixed paraffin-embedded (FFPE) 3T3 cells was used. 3T3 cells had been stably transfected with either IGF-1R or IR expression vectors. Cells were fixed with formalin and embedded in paraffin according to standard protocols. Prior to fixation cells were stimulated with 100 ng/ml of either IGF-1 or Insulin to induce IGF1-R or IR phosphorylation or were left untreated.
(§2) A biotin label within the linker molecule served as a detection tag for the streptavidin-based Ventana iVIEW DAB detection kit.

[2] = biological target: T2, IR (insulin receptor) in untreated IR overexpressing 3T3 cells (UniProt P06213 28-1382, limits assumed); test: as above
T2 construct: whole, on cells; also called IR (unstimulated)
Protocol: as §1, §2

[3] = biological target: T3, phosphorylated IR in IR overexpressing 3T3 cells stimulated with Insulin (UniProt P06213 28-1382, limits assumed, phosphorylated after stimulation with 100 ng/ml Insulin); test: as above
T3 construct: whole, on cells; also called pIR (cells)
Protocol: as §1, §2

[4] = biological target: T4, IGF-1R(1340-1366)[1346-pTyr]amid, phosphorylated IGF-1R peptide (phosphotyrosine at 1346 (IGF-1R numbering); C-terminal amide; in Examples 2.6 and 2.7 a biotinylated PEG-linker bound via glutamic acid at position 1340); test: SPR (Biacore 3000, SA sensor, 25 C): both ssFab' hybridized on the immobilized biotinylated T40-Bi linker, peptide injected as analyte
T4 construct: also called pIGF-1R peptide; pIGF-1R
T4 peptide: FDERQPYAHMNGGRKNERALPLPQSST
Protocol: (§3) As a control, buffer was injected instead of the ssFabs.
(§4) The system was regenerated after each concentration step with a 12 sec pulse of 250 mM NaOH and was reloaded with ssFab′ ligand.

[5] = biological target: T5, IGF-1R(1340-1366)amid, non-phosphorylated IGF-1R peptide (C-terminal amide; in Example 2.6 a biotinylated PEG-linker bound via glutamic acid at position 1340); test: as above
T5 construct: also called Glu(Bi-PEG-1340]amid
T5 peptide: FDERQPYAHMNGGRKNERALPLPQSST
Protocol: as §3, §4

[6] = biological target: T4, IGF-1R(1340-1366)[1346-pTyr]amid, …; test: SPR (Biacore 3000, 25 C), dual binder on biotinylated linker on SA chip, peptide injected; T40 linker (linker 10, spacer T20-Biotin-dT-T20)
[7] = biological target: T4, IGF-1R(1340-1366)[1346-pTyr]amid, …; test: SPR sandwich assay (Biacore T100, 13 C), FIG. 7
Protocol: A Biacore™ T100 instrument (GE Healthcare) was used with a Biacore™ CM5 sensor mounted into the system. The sensor was preconditioned by a 1 min injection at 100 μl/min of 0.1% SDS, 50 mM NaOH, 10 mM HCl and 100 mM H3PO4.
The Biacore™ T100 System was driven under the control software V1.1.1. Polyclonal rabbit IgG antibody <IgGFCγM>R (Jackson ImmunoResearch Laboratories Inc.) at 30 μg/ml in 10 mM Na-Acetate pH 4.5 was immobilized at 10 000 RU on the flow cells 1, 2, 3, and 4, respectively, via EDC/NHS chemistry according to the manufacturer's instructions. Finally, the sensor surface was blocked with 1M ethanolamine. The complete experiment was driven at 13° C.
3 μM of an IgG fragment mixture (of IgG classes IgG1, IgG2a, IgG2b, IgG3) containing blocking solution was injected at 30 μl/min for 5 min.

[8] = biological target: T4, IGF-1R(1340-1366)[1346-pTyr]amid, …; test: SPR (Biacore 3000, SA sensor, 25 C): both ssFab' hybridized on the immobilized biotinylated T0-Bi linker, peptide injected as analyte
Protocol: as §3, §4

[9] = biological target: T5, IGF-1R(1340-1366)amid, …; test: as above
Protocol: as §3, §4

[10] = biological target: T4, IGF-1R(1340-1366)[1346-pTyr]amid, …; test: SPR (Biacore 3000, 25 C), dual binder on biotinylated linker on SA chip, peptide injected; T0 linker (no spacer)
[11] = biological target: T4, IGF-1R(1340-1366)[1346-pTyr]amid, …; test: SPR (Biacore 3000, SA sensor, 25 C): only ssFab' 1.4.168 hybridized on the immobilized biotinylated T0-Bi linker, peptide injected as analyte
Protocol: as §3, §4

[12] = biological target: T5, IGF-1R(1340-1366)amid, …; test: as above
Protocol: as §3, §4

[13] = biological target: T4, IGF-1R(1340-1366)[1346-pTyr]amid, …; test: SPR (Biacore 3000, SA sensor, 25 C): only ssFab' 1.4.168 hybridized on the immobilized biotinylated 8xC18 linker, pIGF-1R peptide injected as analyte
Protocol: (§5) 89 RU amino-PEO-biotin were captured on the reference flow cell 1.
(§6) The system was regenerated after each concentration step with a 12 sec pulse of 250 mM NaOH and was reloaded with ssFab ligand.

[14] = biological target: T4, IGF-1R(1340-1366)[1346-pTyr]amid, …; test: SPR (Biacore 3000, SA sensor, 25 C): only ssFab' 1.4.168 hybridized on the immobilized biotinylated T40-Bi linker, peptide injected as analyte
Protocol: as §3, §4

[15] = biological target: T5, IGF-1R(1340-1366)amid, …; test: as above
Protocol: as §3, §4

[16] = biological target: T4, IGF-1R(1340-1366)[1346-pTyr]amid, …; test: SPR (Biacore 2000, 25 C), biotinylated peptide on SA chip, 100 nM ssFab' injected
Protocol: (§7) 100 nM of analyte (i.e. in these experiments a bi-valent dual binding agent) in solution was injected at 50 μl/min for 240 sec association time and dissociation was monitored for 500 sec. Efficient regeneration was achieved by using a 1 min injection step at 50 μl/min with 80 mM NaOH. Flow cell 1 served as a reference. A blank buffer injection was used instead of an antigen injection to double reference the data by buffer signal subtraction.
(§8) (The digoxigenylation of the middle thymidine (T(-Dig)) in the above linkers is without relevance to these experiments.)
(§9) Report points were set at the end of the analyte association phase (Binding Late, BL) and at the end of the analyte dissociation phase (Stability Late, SL) to monitor the response unit signal heights of each interaction. The dissociation rates kd (1/s) were calculated according to a linear 1:1 Langmuir fit using the Biacore™ evaluation software 4.1. The complex halftimes in minutes were calculated upon the formula In(2)/(60*kd).

[17] = biological target: T5, IGF-1R(1340-1366)amid, …; test: as above
Protocol: as §7, §8, §9

[18] = biological target: T2, IR (insulin receptor) in untreated IR …; test: IHC (Ventana BenchMark XT), FFPE 3T3 cells
Protocol: as §1, §2

[19] = biological target: T3, phosphorylated IR in IR overexpressing …; test: IHC (Ventana BenchMark XT), FFPE 3T3 cells
Protocol: as §1, §2

[20] = biological target: T4, IGF-1R(1340-1366)[1346-pTyr]amid, …; test: SPR (Biacore 3000, SA sensor, 25 C): both ssFab' hybridized on the immobilized biotinylated 8xC18 linker, pIGF-1R peptide injected as analyte
Protocol: as §5, §6

[21] = biological target: T4, IGF-1R(1340-1366)[1346-pTyr]amid, …; test: SPR (Biacore 3000, 25 C), ssFab's on biotinylated 8xC18 linker on SA chip, pIGF-1R peptide injected
Protocol: as §6

[22] = biological target: T4, IGF-1R(1340-1366)[1346-pTyr]amid, …; test: SPR (Biacore 3000, 25 C)
[23] = biological target: T6, human_HER3(1242-1267)-Bi-PEG-amide (human, C-terminal Bi-PEG-amide (biotin); singly grafted on streptavidin); test: SPR kinetic screening (Biacore A100), mAb captured by anti-mouse IgG Fc, peptide singly grafted on streptavidin injected
T6 construct: Injected as analyte, singly grafted on streptavidin
T6 peptide: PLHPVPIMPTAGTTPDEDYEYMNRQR
Protocol: A Biacore™ A100 instrument under control of the software version V1.1 is used. A Biacore™ CM5 chip is mounted into the instrument and is hydrodynamically addressed conditioned according to the manufacturer's instructions. As a running buffer an HBS-EP buffer is used (10 mM HEPES (pH 7.4), 150 mM NaCl, 1 mM EDTA, 0.05% (w/v) P20). A polyclonal rabbit anti-mouse IgG Fc capture antibody is immobilized at 30 μg/ml in 10 mM sodium acetate buffer (pH 4.5) to spots 1, 2, 4 and 5 in flow cells 1, 2, 3 and 4 at 10,000 RU. The antibody is covalently immobilized via NHS/EDC chemistry. The sensor is deactivated thereafter with a 1 M ethanolamine solution. Spots 1 and 5 are used for the determination and spots 2 and 4 are used as reference. Prior to application to the sensor chip the hybridoma supernatants containing mAbs are diluted 1:2 in HBS-EP buffer. The diluted solution is applied at a flow rate of 30 μl/min for 1 min. […] Thereafter, the signal is recorded for 5 min dissociation time. The sensor is regenerated by injecting a 10 mM glycine-HCl solution (pH 1.7) for 2 min, at a flow rate of 30 μl/min. The dissociation rate constant kd (1/s) is calculated according to a Langmuir model using the evaluation software according to the manufacturer's instructions.

T2 sequence (P06213 28-1382 limits assumed): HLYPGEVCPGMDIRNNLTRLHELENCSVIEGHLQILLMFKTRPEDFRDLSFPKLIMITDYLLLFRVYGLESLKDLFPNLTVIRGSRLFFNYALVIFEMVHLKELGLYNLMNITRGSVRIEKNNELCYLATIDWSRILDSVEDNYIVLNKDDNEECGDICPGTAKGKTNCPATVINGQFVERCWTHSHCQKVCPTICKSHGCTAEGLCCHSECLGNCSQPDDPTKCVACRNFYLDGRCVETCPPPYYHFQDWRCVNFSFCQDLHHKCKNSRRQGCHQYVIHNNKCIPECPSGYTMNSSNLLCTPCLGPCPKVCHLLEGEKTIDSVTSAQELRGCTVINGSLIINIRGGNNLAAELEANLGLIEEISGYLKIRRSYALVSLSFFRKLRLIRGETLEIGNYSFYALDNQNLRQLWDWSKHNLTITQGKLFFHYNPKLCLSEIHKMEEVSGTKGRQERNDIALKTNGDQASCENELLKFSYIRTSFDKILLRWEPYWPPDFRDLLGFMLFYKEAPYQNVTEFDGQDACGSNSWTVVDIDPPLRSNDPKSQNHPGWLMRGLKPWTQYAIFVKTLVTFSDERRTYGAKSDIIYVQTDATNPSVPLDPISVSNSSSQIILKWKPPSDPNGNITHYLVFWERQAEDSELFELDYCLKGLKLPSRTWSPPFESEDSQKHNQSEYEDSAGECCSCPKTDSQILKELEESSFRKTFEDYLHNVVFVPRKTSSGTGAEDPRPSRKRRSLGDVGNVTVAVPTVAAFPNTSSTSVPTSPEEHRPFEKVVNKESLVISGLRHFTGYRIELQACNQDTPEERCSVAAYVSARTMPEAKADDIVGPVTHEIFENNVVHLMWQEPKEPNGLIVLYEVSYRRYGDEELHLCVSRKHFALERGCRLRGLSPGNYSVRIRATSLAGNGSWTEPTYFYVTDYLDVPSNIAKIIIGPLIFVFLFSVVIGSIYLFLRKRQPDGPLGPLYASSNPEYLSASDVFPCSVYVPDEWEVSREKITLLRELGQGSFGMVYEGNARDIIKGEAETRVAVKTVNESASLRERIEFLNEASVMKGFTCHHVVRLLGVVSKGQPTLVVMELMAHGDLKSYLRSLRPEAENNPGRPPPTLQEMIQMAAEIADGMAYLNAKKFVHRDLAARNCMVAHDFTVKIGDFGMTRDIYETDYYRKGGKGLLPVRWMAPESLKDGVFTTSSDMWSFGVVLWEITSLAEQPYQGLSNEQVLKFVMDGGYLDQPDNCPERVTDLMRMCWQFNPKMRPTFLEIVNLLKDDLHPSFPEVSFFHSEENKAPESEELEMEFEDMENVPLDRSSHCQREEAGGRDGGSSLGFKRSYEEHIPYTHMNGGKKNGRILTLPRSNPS
T3 sequence (P06213 28-1382 limits assumed): as above
T1 sequence (P08069 31-1367 limits assumed): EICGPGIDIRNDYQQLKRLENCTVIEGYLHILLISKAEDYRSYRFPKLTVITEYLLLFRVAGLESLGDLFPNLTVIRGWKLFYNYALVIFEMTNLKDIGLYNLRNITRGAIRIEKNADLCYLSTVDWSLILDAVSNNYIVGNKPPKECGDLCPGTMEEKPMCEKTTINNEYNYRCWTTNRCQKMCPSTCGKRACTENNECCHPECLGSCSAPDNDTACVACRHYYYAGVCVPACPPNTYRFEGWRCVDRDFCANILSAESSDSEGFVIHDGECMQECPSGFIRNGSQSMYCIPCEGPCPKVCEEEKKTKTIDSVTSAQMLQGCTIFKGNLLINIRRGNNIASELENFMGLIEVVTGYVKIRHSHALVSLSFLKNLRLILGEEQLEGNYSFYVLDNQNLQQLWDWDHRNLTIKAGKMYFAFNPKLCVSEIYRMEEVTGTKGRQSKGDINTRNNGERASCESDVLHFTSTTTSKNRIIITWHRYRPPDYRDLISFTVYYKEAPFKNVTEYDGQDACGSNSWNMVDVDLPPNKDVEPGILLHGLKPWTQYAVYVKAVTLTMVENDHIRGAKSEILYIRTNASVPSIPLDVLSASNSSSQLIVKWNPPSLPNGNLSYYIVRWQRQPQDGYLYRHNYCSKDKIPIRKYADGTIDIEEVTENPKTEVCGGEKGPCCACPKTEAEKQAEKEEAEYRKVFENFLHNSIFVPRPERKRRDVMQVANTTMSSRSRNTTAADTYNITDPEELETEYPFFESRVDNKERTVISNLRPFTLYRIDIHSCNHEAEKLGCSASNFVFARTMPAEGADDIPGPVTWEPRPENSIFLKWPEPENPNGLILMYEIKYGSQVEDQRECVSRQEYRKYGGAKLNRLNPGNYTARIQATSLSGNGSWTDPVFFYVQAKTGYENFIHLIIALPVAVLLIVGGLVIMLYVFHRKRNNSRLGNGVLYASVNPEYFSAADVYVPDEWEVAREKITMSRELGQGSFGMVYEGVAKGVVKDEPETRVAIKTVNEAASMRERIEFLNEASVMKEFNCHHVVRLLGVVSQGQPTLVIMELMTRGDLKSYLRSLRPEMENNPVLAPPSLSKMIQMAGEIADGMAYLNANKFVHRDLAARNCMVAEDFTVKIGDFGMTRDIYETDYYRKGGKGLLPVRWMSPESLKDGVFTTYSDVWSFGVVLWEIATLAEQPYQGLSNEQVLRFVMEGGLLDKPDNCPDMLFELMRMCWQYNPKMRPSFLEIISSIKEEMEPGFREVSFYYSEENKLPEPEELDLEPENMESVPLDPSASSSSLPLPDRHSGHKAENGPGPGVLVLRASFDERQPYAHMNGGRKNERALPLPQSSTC

B1: ssFab' 30.4.33 (Fab' of mAb 30.4.33 linked to ssDNA) (Fab, V domains shown)
VH: EVQLQESGPEVAKPGASVKMSCKASGYTFTDYIIHWVKQRPGQDLEWIGYINPYNDKSKYNEKFKDKATLTSDRSSSTSYMDLSTLTSDDSAVYYCTRHGYYRSDGFDYWGQGTTLTVSS
VL: DIVLTQSPTIMSASPGEKVTMTCRASSSVSSSSLHWYQQKPGSSPKLWIYSTSTLASGVPARFSGSGSGTSYSLTISGVETEDAATYYCQQYGTSPYTFGSGTKVDIK
modifications: ssDNA oligonucleotide coupled to the Fab' hinge region
- binding result [1]: no binding (tested: 0.5 µg/ml)
- binding result [2]: no binding (tested: 0.5 µg/ml)
- binding result [3]: no binding (tested: 0.5 µg/ml)

B2: T40-T-Bi linker dual binder with ssFab' 8.1.2 and ssFab' 1.4.168 (linker 10 of example 2.4) (bispecific antibody, V domains shown)
VH 1: EVQLQQSGPALVKPGASVKMSCKASGFTFTSYVIHWVKQKPGQGLEWIGYLNPYNDNTKYNEKFKGKATLTSDRSSSTVYMEFSSLTSEDSAVYFCARRGIYAYDHYFDYWGQGTSLTVSS
VL 1: QIVLTQSPAIMSASPGEKVTLTCSASSSVNYMYWYQQKPGSSPRLLIYDTSNLASGVPVRFSGSGSVTSYSLTISRMEAEDAATYYCQQWSTYPLTFGAGTKLELK
VH 2: QCDVKLVESGGGLVKPGGSLKLSCAASGFTFSDYPMSWVRQTPEKRLEWVATITTGGTYTYYPDSIKGRFTISRDNAKNTLYLQMGSLQSEDAAMYYCTRVKTDLWWGLAYWGQGTLVTVSA
VL 2: QLVLTQSSSASFSLGASAKLTCTLSSQHSTYTIEWYQQQPLKPPKYVMELKKDGSHTTGDGIPDRFSGSSSGADRYLSISNIQPEDESIYICGVGDTIKEQFVYVFGGGTKVTVLG
modifications: 17 mer ssDNA (SEQ ID NO:6, fluorescein) on hinge cysteine; 19 mer ssDNA (SEQ ID NO:5, Cy5) on hinge cysteine
notes: Two Fab'-ssDNA conjugates hybridised on biotinylated 77-mer DNA linker 10 (T20-Biotin-dT-T20) captured on a streptavidin chip; also called T40-Bi
- Kd [4]: 0.0125 nM
- Kd [5]: 0.973 nM and 1 nM
- t1/2 diss [5]: 4.3 min
- Kd [6]: 0.01 nM

B3: murine monoclonal antibody M-1.4.168-IgG (antibody, V domains shown)
VH: DVKLVESGGGLVKPGGSLKLSCAASGFTFSDYPMSWVRQTPEKRLEWVATITTGGTYTYYPDSIKGRFTISRDNAKNTLYLQMGSLQSEDAAMYYCTRVKTDLWWGLAYWGQGTLVTVSA
VL: B2 VL 2
notes: Whole murine IgG from hybridoma; also called mAb 1.4.168; M-1.004.168-IgG
- binding result [7]: binds

B4: T0 dual binding agent with ssFab' 8.1.2 and ssFab' 1.4.168 on the biotinylated T0-Bi 37-mer ssDNA-Linker (linker 17 of example 2.4) (bispecific antibody, V domains shown)
VH 1: B2 VH 1
VL 1: B2 VL 1
VH 2: B2 VH 2
VL 2: B2 VL 2
modifications: 17 mer ssDNA (SEQ ID NO:6, fluorescein) on hinge cysteine; 19 mer ssDNA (SEQ ID NO:5, Cy5) on hinge cysteine
- Kd [8]: 0.0344 nM
- Kd [9]: 1.2 nM and 1 nM
- t1/2 diss [9]: 5 min
- Kd [10]: 0.03 nM

B5: ssFab' 1.4.168 (Fab' of mAb 1.4.168 covalently linked to 17 mer ssDNA) (Fab, V domains shown)
VH: B3 VH
VL: B2 VL 2
modifications: 17 mer ssDNA comprising SEQ ID NO:6 with fluorescein, coupled through maleimide to a cysteine of the Fab' hinge region
notes: Fab' from pepsin cleavage and cysteamine reduction of a murine monoclonal IgG; also called ssFab' 1.004.168; fluorescein-ssFab' 1.4.168
- Kd [11]: 2.59 nM and 3 nM
- t1/2 diss [11]: 4 min
- Kd [12]: 1.35 nM and 1 nM
- t1/2 diss [12]: 4 min
- binding result [2]: no binding (tested: 0.5 µg/ml)
- binding result [3]: no binding (tested: 0.5 µg/ml)
- Kd [13]: 2.96 nM and 3 nM
- Kd [14]: 2.14 nM and 2 nM
- Kd [15]: 1.1 nM and 1 nM
- t1/2 diss [15]: 3 min
- T1/2 dis [16]: 3 min
- T1/2 dis [17]: 3 min

B6: anti-pIGF-1R dual binder composed of ssFab' 1.4.168, ssFab' 30.4.33 and an 8xC18 linker molecule (linker 14 of example 2.4) (bispecific antibody, V domains shown)
VH 1: B1 VH
VL 1: B1 VL
VH 2: B2 VH 2
VL 2: B2 VL 2
modifications: 17 mer ssDNA (SEQ ID NO:6) on hinge cysteine; ssDNA oligonucleotide on the Fab' hinge region
notes: Two Fab'-ssDNA conjugates hybridised on biotinylated linker 14 ((Spacer C18)4-(Biotin-dT)-(Spacer C18)4)
- binding result [18]: no binding (tested: 0.5 µg/ml per ssFab')
- binding result [19]: no binding (tested: 0.5 µg/ml per ssFab')
- Kd [20]: 0.0112 nM and 0.011 nM
- kon [20]: 1.24e+06 M⁻¹ s⁻¹
- Kd [21]: ~0.01 nM
- koff [21]: 1.39e-05 s⁻¹
- fold affinity improvement compared to ssFab' 1.4.168 alone [22]: 300 fold
- fold affinity improvement compared to ssFab' 30.4.33 alone [22]: 200 fold
- fold lower off-rate than ssFab' 1.4.168 [22]: 230 fold
- fold lower off-rate than ssFab' 30.4.33 [22]: 110 fold

B7: monoclonal antibody 7.2.32 directed against HER3(1242-1267) (antibody, V domains shown)
VH: EVQLQESGGGLVQPKGSLQLSCAASGFTFNTYAMHWVRQAPGKGLEWVARIRTESSDYATDYADSVKDRFIISRDDSQNMLYLQMNNLKSEDTAIYYCVRSSGFDYWGQGTTLTVSS
VL: DIQMTQSPSLPVSLGDQASISCRSSQSLVHDNGNTYLHWFLQKPGQSPKLLIYKVSNRFSGVPDRFGGSGSGTDFTLKISGVEAEDLGVYFCSQGTHVPTFGGGTKLEIK
notes: Mouse monoclonal IgG from hybridoma supernatant, captured by anti-mouse IgG Fc; also called mAb 7.2.32
- koff [23]: 0.0023 s⁻¹
